Assay results taken from US20240116985A1 (published 2024).
Starred links: 1 amine or outer side, 2 acyl side, 3 side chain; linkers in the order of their positions; H or OH if unused. Positions of bridges follow the written chain, without caps; N, C: chain ends. Non-standard residues stand in square brackets, D forms with d. Primed or numbered codes have the meaning given here. PyrS2″ = (S)-3-amino-1-((pent-4-en-1-yloxy)carbonyl)pyrrolidine-3-carboxylic acid (stapling residue), C=CCCCOC(=O)N1CC[C@@](N[*:1])(C(=O)[*:2])C1; B5(17) = 2,2-bis(4-pentenyl)glycine = 2-amino-2-(pent-4-en-1-yl)hept-6-enoic acid, stitching residue, C=CCCCC(CCCC=C)(N[*:1])C(=O)[*:2]; B5(4) = 2,2-bis(4-pentenyl)glycine = 2-amino-2-(pent-4-en-1-yl)hept-6-enoic acid (stitching residue), C=CCCCC(CCCC=C)(N[*:1])C(=O)[*:2]; B5(21) = 2-amino-2-(pent-4-en-1-yl)hept-6-enoic acid, bis(4-pentenyl)glycine (stitching residue), C=CCCCC(CCCC=C)(N[*:1])C(=O)[*:2]; SeN = (S)-5-(((allyloxy)carbonyl)(methyl)amino)-2-amino-2-methylpentanoic acid, C=CCOC(=O)N(C)CCC[C@](C)(N[*:1])C(=O)[*:2]; SdN = (S)-4-(((allyloxy)carbonyl)(methyl)amino)-2-amino-2-methylbutanoic acid, C=CCOC(=O)N(C)CC[C@](C)(N[*:1])C(=O)[*:2]; (EtSSEt)AspE = (S)-2-amino-4-(2-(ethyldisulfaneyl)ethoxy)-4-oxobutanoic acid, CCSSCCOC(=O)C[C@H](N[*:1])C(=O)[*:2]; B5(19) = 2-amino-2-(pent-4-en-1-yl)hept-6-enoic acid (bis(4-pentenyl)glycine), C=CCCCC(CCCC=C)(N[*:1])C(=O)[*:2]; S6 = (S)-2-amino-2-methyloct-7-enoic acid, C=CCCCC[C@](C)(N[*:1])C(=O)[*:2]; S3 = (S)-2-amino-2-methylpent-4-enoic acid, C=CC[C@](C)(N[*:1])C(=O)[*:2]; Phe(4-CN) = N#Cc1ccc(C[C@H](N)C(=O)O)cc1; Bta = N[C@@H](Cc1csc2ccccc12)C(=O)O; αAllylPro = C=CC[C@@]1(C(=O)O)CCCN1; tBuAla = CC(C)(C)C[C@H](N)C(=O)O; 3Thi = N[C@@H](Cc1ccsc1)C(=O)O; S8 = C=CCCCCCC[C@](C)(N)C(=O)O; Aib = CC(C)(N)C(=O)O

T1: B-cat-Halo (beta-catenin HaloTag Nano-BRET construct) (UniProt P35222 1-781)
T1 sequence (looked up): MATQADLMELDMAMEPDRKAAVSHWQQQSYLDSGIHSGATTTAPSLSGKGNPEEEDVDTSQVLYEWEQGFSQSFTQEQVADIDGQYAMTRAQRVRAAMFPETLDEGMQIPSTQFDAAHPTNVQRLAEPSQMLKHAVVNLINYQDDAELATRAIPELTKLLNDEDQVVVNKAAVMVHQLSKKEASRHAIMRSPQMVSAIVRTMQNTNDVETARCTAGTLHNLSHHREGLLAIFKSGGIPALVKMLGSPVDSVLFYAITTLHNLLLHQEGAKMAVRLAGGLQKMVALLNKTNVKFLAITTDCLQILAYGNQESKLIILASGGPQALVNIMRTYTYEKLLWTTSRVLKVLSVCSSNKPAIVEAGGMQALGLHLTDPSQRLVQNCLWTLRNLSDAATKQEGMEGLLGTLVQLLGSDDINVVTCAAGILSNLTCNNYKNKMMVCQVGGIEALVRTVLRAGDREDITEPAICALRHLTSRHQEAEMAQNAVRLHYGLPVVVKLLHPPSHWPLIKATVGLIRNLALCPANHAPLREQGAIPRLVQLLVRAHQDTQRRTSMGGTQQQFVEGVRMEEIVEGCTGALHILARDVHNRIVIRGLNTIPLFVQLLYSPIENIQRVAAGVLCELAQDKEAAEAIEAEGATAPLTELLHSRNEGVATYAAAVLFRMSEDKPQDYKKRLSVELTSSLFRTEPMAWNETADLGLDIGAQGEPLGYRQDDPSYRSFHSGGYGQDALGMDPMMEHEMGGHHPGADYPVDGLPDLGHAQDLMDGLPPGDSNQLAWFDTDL

T2: full-length beta-Catenin (Uniprot ID P35222) (Homo sapiens (Human), UniProt P35222 2-781)
T2 construct: The assay protocols say only 'full-length'; No tag is stated, although the AlphaScreen kit is a Histidine (Nickel Chelate) kit; also called B-Catenin; bCat
T2 sequence: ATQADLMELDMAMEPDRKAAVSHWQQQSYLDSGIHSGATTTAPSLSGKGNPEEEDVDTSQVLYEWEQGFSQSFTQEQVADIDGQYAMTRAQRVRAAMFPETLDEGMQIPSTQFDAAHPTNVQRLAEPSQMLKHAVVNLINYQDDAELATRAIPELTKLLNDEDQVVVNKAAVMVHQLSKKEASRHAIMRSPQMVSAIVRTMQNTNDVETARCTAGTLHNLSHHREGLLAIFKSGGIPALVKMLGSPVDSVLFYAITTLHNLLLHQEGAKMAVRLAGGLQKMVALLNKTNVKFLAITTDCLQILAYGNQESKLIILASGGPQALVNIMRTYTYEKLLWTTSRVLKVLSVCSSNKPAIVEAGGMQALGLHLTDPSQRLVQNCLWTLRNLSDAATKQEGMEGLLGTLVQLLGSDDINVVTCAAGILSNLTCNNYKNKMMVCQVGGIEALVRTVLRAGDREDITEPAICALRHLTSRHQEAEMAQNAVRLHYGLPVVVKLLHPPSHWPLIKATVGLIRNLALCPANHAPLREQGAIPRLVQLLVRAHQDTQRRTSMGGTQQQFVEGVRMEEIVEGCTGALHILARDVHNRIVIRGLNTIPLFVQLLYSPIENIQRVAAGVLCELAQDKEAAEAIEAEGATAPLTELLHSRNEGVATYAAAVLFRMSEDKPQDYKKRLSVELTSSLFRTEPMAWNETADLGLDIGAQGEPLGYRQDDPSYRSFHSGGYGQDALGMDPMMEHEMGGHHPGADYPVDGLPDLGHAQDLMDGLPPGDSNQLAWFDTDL

T3: full-length beta-Catenin (Uniprot ID P35222) (Homo sapiens (Human), UniProt P35222 1-781)
T3 construct: The assay protocol says 'full-length'; also called bCat; B-Catenin
T3 sequence: T1 sequence (looked up)

B1: I-1983 (peptide)
peptide: Ac-[αAllylPro]D[tBuAla][S3]DDAAFL[Aib][3Thi][Bta]Q-NH2
modifications: staple 1-4; not fully specified; printed as Ac-PL3-Asp-Npg-S3-Asp-Asp-Ala-Ala-Phe-Leu-Aib-3Thi-BztA-Gln-NH2; also: staple -CH=CH- reduced to -CH2-CH2-
B2: I-359 (peptide)
peptide: Ac-[αAllylPro]DA[B5(19)]DDAAFV[S8][Phe(4-CN)][Bta]Q-NH2
modifications: staple 1-4, 4-11
notes: Stapled peptide composition; also called Ac-PL3-Asp-Ala-B5-Asp-Asp-Ala-Ala-Phe-Val-S8-4CNF-BztA-Gln-NH2
B3: I-355 (peptide)
peptide: XDAXDDAAFVXAWQ
modifications: not fully specified; N-terminal Ac; C-terminal NH2; PL3 at 1, B5 at 4, S8 at 11 (stapled 1-4 and 4-11)
notes: Stapled peptide composition; Earlier-eluting isomer composition; also called Ac-PL3-Asp-Ala-B5-Asp-Asp-Ala-Ala-Phe-Val-S8-Ala-Trp-Gln-NH2
B4: I-358 (peptide)
peptide: XDAXDDAAFVXFAQ
modifications: not fully specified; N-terminal Ac; C-terminal NH2; PL3 at 1, B5 at 4, S8 at 11 (stapled 1-4 and 4-11)
notes: Stapled peptide composition; Later-eluting isomer composition; also called Ac-PL3-Asp-Ala-B5-Asp-Asp-Ala-Ala-Phe-Val-S8-Phe-Ala-Gln-NH2
B5: I-354 (peptide)
peptide: XDAXDDAAAVXFWQ
modifications: not fully specified; N-terminal Ac; C-terminal NH2; PL3 at 1, B5 at 4, S8 at 11 (stapled 1-4 and 4-11)
notes: Stapled peptide composition; Later-eluting isomer composition; also called Ac-PL3-Asp-Ala-B5-Asp-Asp-Ala-Ala-Ala-Val-S8-Phe-Trp-Gln-NH2
B6: I-356 (peptide)
peptide: XDAXDDAAFVXAWQ
modifications: not fully specified; N-terminal Ac; C-terminal NH2; PL3 at 1, B5 at 4, S8 at 11 (stapled 1-4 and 4-11)
notes: Stapled peptide composition; Later-eluting isomer composition; also called Ac-PL3-Asp-Ala-B5-Asp-Asp-Ala-Ala-Phe-Val-S8-Ala-Trp-Gln-NH2
B7: I-54: Ac-PL3-Asp-Ala-B5-Asp-Asp-Ala-Ala-Phe-Val-SeN-Phe-Trp-Gln-NH2 (stapled peptide) (peptide)
peptide: Ac-[αAllylPro]DA[B5(4)]DDAAFV[SeN]FWQ-NH2
modifications: staple 1-4, 4-11; not fully specified; printed as Ac-PL3-Asp-Ala-B5-Asp-Asp-Ala-Ala-Phe-Val-SeN-Phe-Trp-Gln-NH2
notes: Same description as I-53

Biological target: T1, B-cat-Halo (beta-catenin HaloTag …)
Assay: cell-based or functional assay

Row | NanoBRET Abs IC50 | Binder
1 | > 20 µM | B1
2 | > 20 µM | Ac-[αAllylPro]D[tBuAla][S6]DDAAFL[Aib][3Thi][Bta]Q-NH2 (staple 1-4) [I-1978]
3 | 25.2 µM | Ac-[αAllylPro]D[tBuAla][B5(4)]D[(EtSSEt)AspE]AAFL[PyrS2″][3Thi][Bta]Q-NH2 (staple 1-4, 4-11) [I-1965]

Biological target: T2, full-length beta-Catenin (Uniprot ID …)
Assay: fluorescence polarization competition; peptide titrated against full-length beta-catenin + 5FAM-TCF4(10-53) probe
Protocol: (§1) The plate was incubated protected from light for 60 minutes at 20° C. prior to read. Reads were performed on a CLARIOstar plate reader (BMG Labtech) in duplicate, and data were fitted to a 1:1 binding model with hill slope using an in-house script. All provided concentrations are final concentrations.

Row | EC50 | Binder
4 | 5 µM | B2
5 | 5 µM | B3
6 | 5 µM | B4
7 | 5 µM | B5
8 | 5 µM | B6

Biological target: T2, full-length beta-Catenin (Uniprot ID …)
Assay: AlphaScreen competition; peptide titrated against full-length beta-catenin + biotin-TCF4(10-53)
Protocol: as §1, with “Equal volume of the titrated peptide was added to the” for “The”, “and” for “was”, “incubated for 15 minutes at 20° C. Then 4 uL of donor and 4 uL acceptor beads at 10 ug/mL were added to the plate, for a 16 uL reaction pool and” for “incubated”

Row | EC50 | Binder
9 | 10 µM | B3
10 | 10 µM | B4
11 | 8.2 µM | B6

Biological target: T3, full-length beta-Catenin (Uniprot ID …)
Assay: fluorescence polarization competition; full-length beta-catenin, 5FAM-TCF4(10-53) probe as competitor
Protocol: as §1

Row | IC50 | Binder
12 | 5 µM | Ac-[αAllylPro]DA[B5(21)]DDAAFV[SeN]FWQ-NH2 (staple 1-4, 4-11, Same description as I-54) [I-53: Ac-PL3-Asp-Ala-B5-Asp-Asp-Ala-Ala-Phe-Val-SeN-Phe-Trp-Gln-NH2 (stapled peptide)]
13 | 3.2 µM | Ac-[αAllylPro]DA[B5(21)]DDAAFV[S8]FWQ-NH2 (staple 1-4, 4-11, Tested as stapled peptide composition) [I-52: Ac-PL3-Asp-Ala-B5-Asp-Asp-Ala-Ala-Phe-Val-S8-Phe-Trp-Gln-NH2 (stapled peptide)]
14 | 3.19 µM | B7
15 | 5 µM | Ac-[αAllylPro]DA[B5(17)]DDAAFV[SdN]FWQ-NH2 (staple 1-4, 4-11, Tested as stapled peptide composition) [I-55: Ac-PL3-Asp-Ala-B5-Asp-Asp-Ala-Ala-Phe-Val-SdN-Phe-Trp-Gln-NH2 (stapled peptide)]
